Data taken from patent US20100047226A1 (published 2010).

Legend:
Experiment in all cases: cell-based or functional assay
SGK (active form) = target: T1, SGK (active form) (UniProt O00141 60-431, limits assumed)
T1 sequence (looked up): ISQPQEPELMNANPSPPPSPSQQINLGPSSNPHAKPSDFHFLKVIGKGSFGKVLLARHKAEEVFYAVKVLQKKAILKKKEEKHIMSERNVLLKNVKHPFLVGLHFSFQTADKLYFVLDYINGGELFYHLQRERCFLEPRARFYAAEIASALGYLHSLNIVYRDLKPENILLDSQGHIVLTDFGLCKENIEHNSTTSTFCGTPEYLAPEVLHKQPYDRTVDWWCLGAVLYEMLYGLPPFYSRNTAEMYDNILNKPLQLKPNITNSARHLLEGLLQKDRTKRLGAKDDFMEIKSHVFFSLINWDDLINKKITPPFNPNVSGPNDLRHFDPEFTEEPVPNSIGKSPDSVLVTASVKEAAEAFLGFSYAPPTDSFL

PI3K[…] (active form) = target: PI3K[…] (active form)
Abl (active form) = Abl (active form) (UniProt P00519 27-1130, limits assumed)
Sequence of Abl (active form) (P00519 27-1130 limits assumed): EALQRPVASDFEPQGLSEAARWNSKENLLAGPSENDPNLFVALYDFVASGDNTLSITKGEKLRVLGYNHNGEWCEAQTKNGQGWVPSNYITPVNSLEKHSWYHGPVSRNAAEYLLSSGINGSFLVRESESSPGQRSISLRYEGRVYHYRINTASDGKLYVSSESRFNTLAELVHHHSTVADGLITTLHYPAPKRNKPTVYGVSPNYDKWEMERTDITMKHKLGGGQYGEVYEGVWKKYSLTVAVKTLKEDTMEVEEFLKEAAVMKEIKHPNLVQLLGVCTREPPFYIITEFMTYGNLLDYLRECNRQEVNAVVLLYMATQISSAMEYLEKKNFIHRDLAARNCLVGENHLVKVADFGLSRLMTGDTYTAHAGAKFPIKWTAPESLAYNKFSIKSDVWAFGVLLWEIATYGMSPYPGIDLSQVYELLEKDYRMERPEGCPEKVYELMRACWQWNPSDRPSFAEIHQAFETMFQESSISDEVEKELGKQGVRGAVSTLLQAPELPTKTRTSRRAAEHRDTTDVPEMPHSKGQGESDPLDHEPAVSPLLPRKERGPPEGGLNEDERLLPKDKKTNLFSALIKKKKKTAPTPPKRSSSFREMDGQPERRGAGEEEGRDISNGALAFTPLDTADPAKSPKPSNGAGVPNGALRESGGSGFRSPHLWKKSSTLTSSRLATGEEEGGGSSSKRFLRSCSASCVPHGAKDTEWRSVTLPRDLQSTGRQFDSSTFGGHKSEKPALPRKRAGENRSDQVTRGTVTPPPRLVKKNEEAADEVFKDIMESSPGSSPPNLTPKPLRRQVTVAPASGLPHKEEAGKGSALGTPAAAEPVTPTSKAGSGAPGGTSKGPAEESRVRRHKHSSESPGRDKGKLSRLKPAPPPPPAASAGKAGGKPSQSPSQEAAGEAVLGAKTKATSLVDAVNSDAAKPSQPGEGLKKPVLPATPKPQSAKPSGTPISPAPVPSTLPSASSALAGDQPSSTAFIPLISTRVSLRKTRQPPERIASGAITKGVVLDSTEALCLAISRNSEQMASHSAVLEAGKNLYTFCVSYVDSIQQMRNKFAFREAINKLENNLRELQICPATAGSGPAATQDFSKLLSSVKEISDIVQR

p70S6K (active form) = p70S6K (active form) (UniProt P23443 1-421)
Sequence of p70S6K (active form) (P23443 1-421): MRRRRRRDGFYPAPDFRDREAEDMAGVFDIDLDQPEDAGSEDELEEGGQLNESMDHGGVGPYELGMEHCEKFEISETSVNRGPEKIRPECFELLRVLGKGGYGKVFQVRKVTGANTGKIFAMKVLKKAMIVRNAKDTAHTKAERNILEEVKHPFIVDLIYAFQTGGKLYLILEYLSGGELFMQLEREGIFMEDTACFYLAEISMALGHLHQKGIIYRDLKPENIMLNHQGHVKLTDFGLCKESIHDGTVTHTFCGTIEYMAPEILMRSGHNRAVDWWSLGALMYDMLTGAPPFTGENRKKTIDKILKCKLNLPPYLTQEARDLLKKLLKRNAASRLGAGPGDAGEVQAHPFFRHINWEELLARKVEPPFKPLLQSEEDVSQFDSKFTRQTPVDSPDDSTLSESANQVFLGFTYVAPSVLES

PAK3 (active form) = PAK3 (active form) (UniProt O75914 1-559, limits assumed)
Sequence of PAK3 (active form) (O75914 whole entry): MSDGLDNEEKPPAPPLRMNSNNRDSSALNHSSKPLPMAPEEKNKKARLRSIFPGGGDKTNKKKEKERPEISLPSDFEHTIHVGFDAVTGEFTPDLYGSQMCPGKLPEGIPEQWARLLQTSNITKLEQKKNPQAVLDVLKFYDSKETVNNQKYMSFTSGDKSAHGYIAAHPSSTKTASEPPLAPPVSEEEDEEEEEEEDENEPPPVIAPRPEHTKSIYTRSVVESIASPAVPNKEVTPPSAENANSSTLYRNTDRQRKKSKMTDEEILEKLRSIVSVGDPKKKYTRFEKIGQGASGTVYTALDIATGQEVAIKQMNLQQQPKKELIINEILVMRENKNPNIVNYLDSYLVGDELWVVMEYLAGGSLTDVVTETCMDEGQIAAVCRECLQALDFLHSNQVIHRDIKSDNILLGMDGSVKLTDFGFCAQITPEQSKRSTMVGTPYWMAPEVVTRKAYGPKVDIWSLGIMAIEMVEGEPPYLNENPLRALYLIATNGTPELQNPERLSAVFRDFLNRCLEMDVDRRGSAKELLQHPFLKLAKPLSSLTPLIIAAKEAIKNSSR

AKT2 (active form) = AKT2 (active form) (UniProt P31751 120-481, limits assumed)
Sequence of AKT2 (active form) (P31751 120-481 limits assumed): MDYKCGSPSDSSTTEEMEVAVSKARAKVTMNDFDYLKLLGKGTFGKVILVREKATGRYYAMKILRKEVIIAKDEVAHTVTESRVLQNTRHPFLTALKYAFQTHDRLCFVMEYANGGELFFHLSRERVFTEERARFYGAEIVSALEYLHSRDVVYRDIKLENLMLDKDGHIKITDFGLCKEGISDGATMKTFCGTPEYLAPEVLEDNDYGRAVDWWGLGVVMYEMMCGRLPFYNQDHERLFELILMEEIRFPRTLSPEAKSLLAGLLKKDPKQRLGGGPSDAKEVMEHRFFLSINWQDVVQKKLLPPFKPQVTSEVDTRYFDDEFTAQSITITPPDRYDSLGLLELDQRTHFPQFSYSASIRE

JAK3 (active form) = JAK3 (active form) (UniProt P52333 781-1124, limits assumed)
Sequence of JAK3 (active form) (P52333 781-1124 limits assumed): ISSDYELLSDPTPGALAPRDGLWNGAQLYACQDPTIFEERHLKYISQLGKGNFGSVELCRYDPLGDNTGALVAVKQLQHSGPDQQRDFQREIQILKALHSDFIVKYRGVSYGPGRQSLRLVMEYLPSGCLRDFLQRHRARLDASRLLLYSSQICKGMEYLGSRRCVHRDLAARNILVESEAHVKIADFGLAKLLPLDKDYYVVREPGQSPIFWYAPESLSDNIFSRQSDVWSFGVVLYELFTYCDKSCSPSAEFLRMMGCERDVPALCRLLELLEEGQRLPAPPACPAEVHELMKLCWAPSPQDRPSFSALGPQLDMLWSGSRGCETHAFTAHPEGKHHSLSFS

TrkB (active form) = TrkB (active form) (UniProt Q16620 526-822, limits assumed)
Sequence of TrkB (active form) (Q16620 526-822 limits assumed): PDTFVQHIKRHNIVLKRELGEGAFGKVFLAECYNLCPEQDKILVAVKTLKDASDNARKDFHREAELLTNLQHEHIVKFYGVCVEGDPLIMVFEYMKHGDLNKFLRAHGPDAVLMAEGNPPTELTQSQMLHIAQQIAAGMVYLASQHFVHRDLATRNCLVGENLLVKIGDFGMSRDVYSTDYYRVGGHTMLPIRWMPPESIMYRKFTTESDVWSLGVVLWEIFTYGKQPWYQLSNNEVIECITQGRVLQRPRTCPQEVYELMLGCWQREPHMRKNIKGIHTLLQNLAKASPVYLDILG

AKRVKGRTWTLCGTPEY [ZaTa peptide (PKAc fragment flanking Thr-197)]
in vitro kinase assay at ten times the IC50 for AKT1 (SGK (active form)): 73%
in vitro kinase assay at ten times the IC50 for AKT1 (PI3K[…] (active form)): 72%
in vitro kinase assay at ten times the IC50 for AKT1 (Abl (active form)): 42%
in vitro kinase assay at ten times the IC50 for AKT1 (p70S6K (active form)): 64%
in vitro kinase assay at ten times the IC50 for AKT1 (PAK3 (active form)): 83%
in vitro kinase assay at ten times the IC50 for AKT1 (AKT2 (active form)): 63%
in vitro kinase assay at ten times the IC50 for AKT1 (JAK3 (active form)): 79%
in vitro kinase assay at ten times the IC50 for AKT1 (TrkB (active form)): 84%
